In paper PMC4118869 (PLoS ONE, 2014):

Target: recombinant H5-HA, A/Vietnam/1203/2004 (H5N1) (Influenza A virus A/Vietnam/1203/2004 …, UniProt Q5EP31, strain)
Test: SPR
Conditions: both partners purified

| Binder | Kd [nM] |
| --- | --- |
| R1a-B6 monovalent (VHH, source: E. coli WK6, periplasmic extract, purified (Talon IMAC, Superdex 75 SEC)) VHH: QVQLVESGGGLVQPGGSLRLSCAASGSFFSRYRMGWYRQAPGEQRELVASIAYDGSTSYADPVKGRFTISRDNANTVHLQMYSLKPDDTAVYYCNLDPPGILYWGQGTQVTVSS | 0.51 |
| R1a-A5 monovalent (VHH, source: E. coli WK6, periplasmic extract, purified (Talon IMAC, Superdex 75 SEC)) VHH: QVQLVESGGGLVQPGGSLRLSCSASGSAVLFSTYPMSWYRQAPGKQRELVAAVTTDGSTSYADYAKGRFTISRDNAKNTVYLQMNSLKPEDTAVYYCNARDGFFNRYDYWGQGTQVTVSS | 0.27 |
